In PMC12373997:

Molecular target: Taxol-stabilized microtubules polymerised from purified porcine brain tubulin (porcine) (UniProt P02550)
Assay: co-sedimentation; tubulin co-sedimentation: taxol-stabilized MTs (varied, α/β-tubulin heterodimer molarity) with 1 µM purified N-clamp, 0.25 mg/ml BSA, BRB80-MT buffer (80 mM PIPES, 1 mM MgCl2, 1 mM EGTA, 12.5% glycerol, pH 6.8), 20 min at room temperature, 200,000 g 10 min 27 °C; SDS-PAGE densitometry of pellet; apparent Kd from a quadratic fit

Chain of A. thaliana augmin N-clamp with AUG8 lacking its N-terminal extension (O48767 whole entry): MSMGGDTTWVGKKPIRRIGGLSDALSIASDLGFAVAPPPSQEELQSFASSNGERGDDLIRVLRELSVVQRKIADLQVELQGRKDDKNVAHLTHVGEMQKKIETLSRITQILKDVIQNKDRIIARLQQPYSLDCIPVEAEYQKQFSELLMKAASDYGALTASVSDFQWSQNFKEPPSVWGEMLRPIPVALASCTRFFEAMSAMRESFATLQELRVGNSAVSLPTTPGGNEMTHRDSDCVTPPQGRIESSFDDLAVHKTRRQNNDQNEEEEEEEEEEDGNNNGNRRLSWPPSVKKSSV
Chain of A. thaliana augmin N-clamp with AUG8 lacking its N-terminal extension (Q94BP7 whole entry): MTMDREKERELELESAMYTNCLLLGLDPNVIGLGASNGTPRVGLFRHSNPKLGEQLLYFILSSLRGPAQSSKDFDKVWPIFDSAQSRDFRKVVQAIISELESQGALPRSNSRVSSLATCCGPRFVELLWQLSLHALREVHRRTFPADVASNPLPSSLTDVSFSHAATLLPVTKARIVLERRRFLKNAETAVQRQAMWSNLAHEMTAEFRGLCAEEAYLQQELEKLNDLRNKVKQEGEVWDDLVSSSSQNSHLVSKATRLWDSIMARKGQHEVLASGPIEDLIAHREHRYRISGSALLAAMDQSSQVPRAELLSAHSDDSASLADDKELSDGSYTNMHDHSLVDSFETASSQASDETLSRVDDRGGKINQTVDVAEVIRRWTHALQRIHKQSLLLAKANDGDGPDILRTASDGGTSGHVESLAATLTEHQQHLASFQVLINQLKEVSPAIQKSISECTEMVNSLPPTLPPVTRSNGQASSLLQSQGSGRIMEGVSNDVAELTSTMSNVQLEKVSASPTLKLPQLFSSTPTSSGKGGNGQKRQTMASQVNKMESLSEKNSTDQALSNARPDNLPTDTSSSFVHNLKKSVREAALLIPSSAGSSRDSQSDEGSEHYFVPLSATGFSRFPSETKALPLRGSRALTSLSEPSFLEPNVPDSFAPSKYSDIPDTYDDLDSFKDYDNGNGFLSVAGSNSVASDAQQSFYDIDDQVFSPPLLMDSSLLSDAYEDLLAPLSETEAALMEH
Chain of A. thaliana augmin N-clamp with AUG8 lacking its N-terminal extension (Q0WTP1 whole entry): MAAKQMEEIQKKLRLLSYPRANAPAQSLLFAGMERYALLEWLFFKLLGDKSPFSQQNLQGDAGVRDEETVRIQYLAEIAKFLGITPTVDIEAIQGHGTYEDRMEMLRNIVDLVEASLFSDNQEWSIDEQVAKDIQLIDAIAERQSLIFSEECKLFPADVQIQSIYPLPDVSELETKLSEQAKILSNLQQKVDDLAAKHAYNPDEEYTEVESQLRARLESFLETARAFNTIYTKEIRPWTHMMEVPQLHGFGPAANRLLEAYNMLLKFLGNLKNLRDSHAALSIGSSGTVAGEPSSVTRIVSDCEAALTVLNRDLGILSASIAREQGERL
Chain of A. thaliana augmin N-clamp with AUG8 lacking its N-terminal extension (Q9SUH5 whole entry): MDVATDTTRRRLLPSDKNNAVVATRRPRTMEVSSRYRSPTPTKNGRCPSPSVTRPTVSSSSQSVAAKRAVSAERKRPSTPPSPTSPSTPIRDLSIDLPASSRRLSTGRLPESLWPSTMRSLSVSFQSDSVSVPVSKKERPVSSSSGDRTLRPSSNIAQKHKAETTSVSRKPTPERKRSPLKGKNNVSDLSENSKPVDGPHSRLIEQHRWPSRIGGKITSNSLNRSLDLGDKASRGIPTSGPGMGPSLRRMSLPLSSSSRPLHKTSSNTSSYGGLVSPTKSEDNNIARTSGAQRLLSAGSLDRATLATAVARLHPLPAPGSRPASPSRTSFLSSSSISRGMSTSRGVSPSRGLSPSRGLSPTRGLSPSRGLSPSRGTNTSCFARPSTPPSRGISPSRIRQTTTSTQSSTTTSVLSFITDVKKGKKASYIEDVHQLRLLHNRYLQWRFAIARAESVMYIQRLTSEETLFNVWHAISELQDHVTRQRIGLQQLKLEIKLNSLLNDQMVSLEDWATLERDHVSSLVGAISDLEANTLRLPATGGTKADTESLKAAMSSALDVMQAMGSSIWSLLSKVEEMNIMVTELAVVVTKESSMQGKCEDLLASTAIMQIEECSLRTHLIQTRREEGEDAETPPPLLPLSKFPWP
Chain of X. laevis augmin N-clamp with HAUS8 lacking its N-terminal extension (Q0IHJ3 whole entry, looked up, one chain of several): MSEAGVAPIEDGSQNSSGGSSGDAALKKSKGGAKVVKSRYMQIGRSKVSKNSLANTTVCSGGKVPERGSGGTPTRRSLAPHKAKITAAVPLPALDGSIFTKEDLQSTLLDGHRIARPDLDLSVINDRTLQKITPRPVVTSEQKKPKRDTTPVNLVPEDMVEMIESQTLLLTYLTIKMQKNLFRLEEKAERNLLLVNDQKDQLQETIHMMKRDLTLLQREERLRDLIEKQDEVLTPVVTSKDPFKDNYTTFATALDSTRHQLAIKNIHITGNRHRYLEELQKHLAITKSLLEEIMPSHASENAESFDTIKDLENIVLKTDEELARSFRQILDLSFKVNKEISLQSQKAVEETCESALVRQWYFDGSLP
Chain of X. laevis augmin N-clamp, wild type (HAUS2, HAUS6, HAUS7-EGFP-HIS8, HAUS8-HIS8) (Q0IHJ3 whole entry, looked up, one chain of several): as above

Kd | Substance
2100 nM | A. thaliana augmin N-clamp with AUG8 lacking its N-terminal extension (from UniProt O48767 1-296; Q94BP7 1-741; Q0WTP1 1-329; Q9SUH5 1-644) (complex)
10 nM | A. thaliana augmin N-clamp, wild type (orthologs of HAUS2, HAUS6, HAUS7-EGFP-HIS8, HAUS8-HIS8) (from UniProt O48767 1-296; Q94BP7 1-741; Q0WTP1 1-329; Q9SUH5 1-644) (complex)
5600 nM | H. sapiens augmin N-clamp with HAUS6^4A-mut (K84A, R90A, K91A, K98A) (from UniProt Q9NVX0 1-235; Q7Z4H7 1-955; Q99871 1-358; Q9BT25 1-410) (complex)
800 nM | H. sapiens augmin N-clamp, wild type (HAUS2, HAUS6, HAUS7-EGFP-HIS8, HAUS8-HIS8) (from UniProt Q9NVX0 1-235; Q7Z4H7 1-955; Q99871 1-358; Q9BT25 1-410) (complex)
40 nM | GST-tagged D. melanogaster augmin N-clamp (Msd1, Dgt6, Msd5-EGFP-GST, Dgt4-HIS8) (from UniProt Q9W0G7 1-138; Q9VAP2 1-654; Q9W4M8 1-188) (complex)
600 nM | X. laevis augmin N-clamp, wild type (HAUS2, HAUS6, HAUS7-EGFP-HIS8, HAUS8-HIS8) (from UniProt Q0IHJ3 1-367; Q0IHJ3 1-367; Q0IHJ3 1-367) (complex)
2200 nM | X. laevis augmin N-clamp with HAUS8 lacking its N-terminal extension (from UniProt Q0IHJ3 1-367; Q0IHJ3 1-367; Q0IHJ3 1-367) (complex)
